Tested on: Bacillus subtilis
Test: cleaved RNA product abundance (RNA/gDNA barcode ratio) relative to median wild-type variant (ratio to wild type); higher = more accumulation of the downstream cleavage product
Outline: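 The B. subtilis chromosome carried reporter mRNAs, truncated aprE or tetM, containing barcoded RNase Y cleavage-site windows mutagenized using oligos with a 9% error rate. After growth in LB at 37°C from OD600 0.0003 to 0.3, cleaved RNA was gel-selected, reverse transcribed and barcode-sequenced next to genomic DNA barcodes, with UMI collapsing. Each construct's RNA:gDNA barcode ratio was scaled to the median construct with the unmutated site. That scaled ratio is reported as cleaved product abundance.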

[1] = experiment (reporter, strain, medium): exp 8a: truncated aprE reporter, strain BJT201 with 2% xylose (RNase J1 expressed), cleavage site: glnRA (positions -5 to +31 mutated)
[2] = experiment (reporter, strain, medium): exp 2b: truncated aprE reporter, strain BJT200, cleavage site: cggR-gapA (positions -7 to +36 mutated)
[3] = experiment (reporter, strain, medium): exp 4a: truncated aprE reporter, strain BJT201 with 2% xylose (RNase J1 expressed), cleavage site: cggR-gapA (positions -7 to +36 mutated)

| Sequence | cleaved RNA product abundance [3] | further results |
| --- | --- | --- |
| CGACATGTCCCGCTTCTTTCATTAATCCGTTAGCAAATGGTTTGCTATATACATTTACCTTTTAAGAGGAGGAAT |  | cleaved RNA product abundance [1]: 0.732 |
| CGACATGTCCCGCTTCTTTCATTAATTCGTTAGTAACTGTTTTGCTATATACATTTACCTTTTAAGAGGAGGAAT |  | cleaved RNA product abundance [1]: 0.445 |
| CGACATGTCCCGCTTCTTTCATTAATCCGTTAGCAACTGTTATCCTATATACATTTACCTTTTAAGAGGAGGAAT |  | cleaved RNA product abundance [1]: 0.337 |
| ACAGACGAAGGAGCCGCAAAGAAGTTACTAACGGATGAATAATCCCTCAATATAAATATCTCTCACTTATTTAAA | 0.162 | cleaved RNA product abundance [2]: 0.0838 |
| ACAGACGAAGGAGCCGCAAAGAAGTTATTAAGGGATGAATAATCCGTAAATATAAATATCTCTCACTTATTTAAA | 0.28 |  |
| ACAGACGAAGGAGCCGCAAAGAAGTTATTAAGGGATGAATAATCCCATAATATAAATATCTCTCACTTATTTAAA | 0.715 |  |
| CGACATGTCCCGCTTCTTTCATTAATTCGTTAGCAATTGTTTTGCTATATACATTTACCTTTTAAGAGGAGGAAT |  | cleaved RNA product abundance [1]: 1.67 |
| ACAGACGAAGGAGCCGCAAAGAAGTTATTAAGGGATGAATAATACCTCAATATAAATAACTCTCACTTATTTAAA | 0.0774 | cleaved RNA product abundance [2]: 0.144 |
| ACAGACGAAGGAGCCGCAATGAAGTTATTAAGGGATGAATAATCCCTAAATATAAATATCTCTCACTTATTTAAA | 0.792 |  |
| ACAGACGAAGGAGCCGCAAAAAAGTTATAAAGGGATGAATAATCCCTCAATATAAATATCTCTCACTTATTTAAA | 0.581 | cleaved RNA product abundance [2]: 0.4 |
| CGACATGTCCCGCTTCTTTCATTAATCCGTTAGCAACTGTTTTGCTATATACATATTCCTTTTAAGAGGAGGAAT |  | cleaved RNA product abundance [1]: 0.511 |
| ACAGACGAAGGAGCCGCAAATAAGTTATTAAGGGATGAATAATCCCTCAATATAAATAACTCTCACTTATTTAAA | 0.44 |  |
| ACAGACGAAGGAGCCGCAAAGAAGTTATTAAGGGTTGAATAATTCCTCAATATAAATATCTCTCACTTATTTAAA | 0.1 |  |
| CGACATGTCCCGCTTCTTTCATTAATCCGTTAGTAACTGTTTTTCTATATACATTTACCTTTTAAGAGGAGGAAT |  | cleaved RNA product abundance [1]: 0.688 |
| ACAGACGAAGGAGCCGCAAAGAAGTTATTAAGGGATGAATAATCCATCTATATAAATATCTCTCACTTATTTAAA |  | cleaved RNA product abundance [2]: 0.191 |
| ACAGACGAAGGAGCCGCAAAGAAGTTATTAAGGGACGAATAATACCTCAATATAAATATCTCTCACTTATTTAAA | 0.12 |  |

| Sequence | cleaved RNA product abundance [3] | further results |
| --- | --- | --- |
| ACAGACGAAGGAGCCGCACAGAAGTTATTAAGGGATGAATAATCCCTGAATATAAATATCTCTCACTTATTTAAA | 0.523 |  |
| ACAGACGAAGGAGCCGCAAAGAAGTTTATTAAGGGATGAATAATCCCTCAATATAAATATCTCTCACTTATTTAA | 0.754 |  |
| ACAGACGAAGGAGCCGCAAAGAAGTTATTAAGGGATGAATAATCCCTCAATATAAATATCTCTCACTTATTAAAG | 0.971 | cleaved RNA product abundance [2]: 0.94 |
| ACAGACGAAGGAGCCGCAAAGCAGTTATTAAGGGATGAATAATCCTTCAATATAAATATCTCTCACTTATTTAAA | 0.526 |  |
| ACAGACGAAGGAGCCGCAAAGAAGTTATTAAGAGATGAATAATCCCTCAATATAAATACCTCTCACTTATTTAAA | 0.126 |  |
| ACAGACGAAGGAGCCGCAAAGAGGTTATTAAGGGATGAATAATCACTCAATATAAATATCTCTCACTTATTTAAA | 0.102 |  |
| ACAGACGAAGGAGCCGCAAAGAAGTTATTATGGCATGAATAATCCCTCAATATAAATATCTCTCACTTATTTAAA | 0.184 | cleaved RNA product abundance [2]: 0.0973 |
| ACAGACGAAGGAGCCGCAAAGAAGTTATTAAGGGATGAATAATCCCTCATTATAAATAACTCTCACTTATTTAAA | 0.248 |  |
| ACAGACGAAGGAGCCGCAAAGAAGTTATTAAGGGACGAATAATCGCTCAATATAAATATCTCTCACTTATTTAAA | 0.0681 |  |
| ACAGACGAAGGAGCCGCAAAGAAGTTATTAAGGGATGAATAATCACTCAATATAATTATCTCTCACTTATTTAAA | 0.0768 |  |
| ACAGACGAAGGAGCCGCAAAGAAATTATTAAGCGATGAATAATCACTCAATATAAATATCTCTCACTTATTTAAA | 0.184 |  |
| CGACATGTCCCGCTTCTTTCATTAATCCGTTAGGAACTGATTTGCTATATACATTTACCTTTTAAGAGGAGGAAT |  | cleaved RNA product abundance [1]: 0.415 |
| ACAGACGAAGGAGCCGCAAAGAAGTTATTAAGGGATGAATAATCCCTCGATATAAATATCTCTCACTTATTTAAA | 0.419 | cleaved RNA product abundance [2]: 0.348; cleaved RNA product abundance (experiment (reporter, strain, medium): exp 6: tetM reporter, strain 168, cleavage site: cggR-gapA (positions -7 to +36 mutated)): 0.589 |
| CGACATGTCCCGCTTCTTTCATTATTCCGTTAGCAACTGTTTTACTATATACATTTACCTTTTAAGAGGAGGAAT |  | cleaved RNA product abundance [1]: 0.812 |
| ACAGACGAAGGAGCCGCAAAGAAGTTATTAAGGGATGAATAATCCCTAAATTTAAATATCTCTCACTTATTTAAA |  | cleaved RNA product abundance [2]: 0.162 |

Reference: the supplement of paper PMC11780869
